Data taken from patent publication US20200121703A1 (CLEVELAND CLINIC FOUNDATION, published 2020).

Molecular target: T1, PAG (protein associated with glycosphingolipid-enriched microdomains) (UniProt Q9NWQ8 1-432)
T1 construct: Endogenous protein of human tumor cell lines, probed by immunoblot in the CD55 immunoprecipitate
T1 sequence (looked up): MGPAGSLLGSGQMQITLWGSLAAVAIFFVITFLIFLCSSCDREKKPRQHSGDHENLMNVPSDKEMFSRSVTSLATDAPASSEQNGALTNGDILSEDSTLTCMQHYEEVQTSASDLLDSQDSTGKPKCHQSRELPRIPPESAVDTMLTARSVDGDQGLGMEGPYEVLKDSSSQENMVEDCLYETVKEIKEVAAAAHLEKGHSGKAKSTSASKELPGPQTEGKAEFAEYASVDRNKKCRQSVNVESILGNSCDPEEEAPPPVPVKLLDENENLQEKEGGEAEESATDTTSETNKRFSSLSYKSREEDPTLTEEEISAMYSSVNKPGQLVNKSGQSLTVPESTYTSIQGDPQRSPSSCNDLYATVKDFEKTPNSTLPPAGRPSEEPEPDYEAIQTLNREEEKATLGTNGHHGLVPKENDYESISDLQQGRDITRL
Test: co-immunoprecipitation with anti-CD55 antibody from endometrioid CSC lysates, immunoblot for PAG
Method: Membranes were incubated overnight at 4° C. with primary antibodies against CD55 (1:1000) (Santa Cruz, Calif.), CD59 (1:1000) (Abcam), CD46 (1:1000) (Santa Cruz, Calif.), NANOG (1:500) (Cell Signaling), SOX2 (1:500) (Cell Signaling), OCT4 (1:500) (Cell Signaling), ROR2 (1:1000) (BD Biosciences), pJNK1 (1:1000) (T183/Y185) (Cell Signaling), JNK1 (1:1000) (Cell Signaling), p-c-Jun (1:1000) (S73) (Cell Signaling), p-c-Jun (1:1000) (S63) (Cell Signaling), c-Jun (1:1000) (Cell Signaling), pLCK (Y394) (1:1000) (BD Biosciences), LCK (1:1000) (Santa Cruz, Calif.), LIME (1:1000) (Invitrogen), PAG (1:1000) (Genetex), and (3-actin (1:1000) (Cell Signaling). Secondary anti-mouse or anti-rabbit IgG antibodies conjugated to horse radish peroxidase (HRP) (1:2000) (Thermo, Rockford, IL) were used and immunoreactive bands were visualized using the ECL plus from Pierce (Rockford, Ill., USA).
The lysates were spun at 12,000xg for 15 min at 4° C. Supernatants were incubated with rabbit anti-human CD55 primary antibody (SantaCruz, Calif.) and the corresponding antibody control for 1 hour at 4° C. Protein A/G agarose beads (Santa Cruz, Dallas, Tex.) were added to lysates which were subsequently incubated on a rotating mixer overnight at 4° C. The beads were then washed 3-4 times at 4° C., and Laemmli sample buffer was added to the beads and boiled for 5 minutes. […]

B1: CD55 (decay accelerating factor) (other, human, UniProt P08174 35-353, looked up)
chain: DCGLPPDVPNAQPALEGRTSFPEDTVITYKCEESFVKIPGEKDSVICLKGSQWSDIEEFCNRSCEVPTRLNSASLKQPYITQNYFPVGTVVEYECRPGYRREPSLSPKLTCLQNLKWSTAVEFCKKKSCPNPGEIRNGQIDVPGGILFGATISFSCNTGYKLFGSTSSFCLISGSSVQWSDPLPECREIYCPAPPQIDNGIIQGERDHYGYRQSVTYACNKGFTMIGEHSIYCTVNNDEGEWSGPPPECRGKSLTSKVPPTVQKPTTVNVPTTEVSPTSQKTTTKTTTPNAQATRSTPVSRTTKHFHETTPNKGSGTTS
modifications: GPI anchor (glycophosphatidylinositol-anchored to lipid rafts)
notes: Endogenous protein pulled down from 0.5% Triton X-100 cell lysates
B1: no binding.
